Laboratory results reported in the DeepSol protein solubility set.

test: soluble on expression in E. coli; label from the status in PepcDB or PDB records

Sequence | soluble on expression in E. coli
AAKVHVDIEADSPFIKSLQKAFPSFEVESLQVTPNDHANARAFSHLATKLIEQETDKDLILDIGSAPSRRMMSTHKYHCVCPMRSAEDPERLDSYAKKLAAASGKVLDREIAGKITDLQTVMATPDAESPTFCLHTDVTCRTAAEVAVYQDVYAVHAPTSLYHQAMKGVRTAYWIGFDTTPFMFDALAGAYPTYATNWADEQVLQARNIGLCAASLTEGRLGKLSILRKKQLKPCDTVMFSVGSTLYTESRKLLRSWHLPSVFHLKGKQSFTCRCDTIVSCEGYVVKKITMCPGLYGKTVGYAVTYHAEGFLVCKTTDTVKGERVSFPVCTYVPSTICDQMTGILATDVTPEDAQKLLVGLNQRIVVNGRTQRNTNTMKNYLLPIVAVAFSKWAREYKADLDDEKPLGVRERSLTCCCLWAFKTRKMHTMYKKPDTQTIVKVPSEFNSFVIPSLWSTGLAIPVRSRIKMLLAKKTKRELIPVLDASSARDAEQEEKERLEAELTREALPPLVPIAPAETGVVDVDVEELEYHAGA | not soluble
MILVDSDVLIAHLRGVVAARDWLVSARKDGPLAISVVSTAELIGGMRTAERREVWRLLASFRVQPATEVIARRAGDMMRRYRRSHNRIGLGDYLIAATADVQDLQLATLNVWHFPMFEQLKPPFAVPGHRPRA | not soluble
MIEYSSFVLDNGLKVFVHEDRTTSMAALNILYDVGSKDEVVTKTGFAHLFEHLMFGGSKHIPSYDEALQKAGGENNAFTSPDITNYYITIPANNIETAFWLESDRMMALSFDPKVLEVQRSVVIEEFKQRYLNQPYGDVWLKLRPLAYKEHSYKWATIGKEISHIEEATMDDVRDFFYSYYLPNNAYMVVAGNVTLEQVKKLSEKWFAPIPSGTRRKRNIP | not soluble
EEPEHSYDNSWGMGYGSSNSRSYGSQNSRSYGSPRTPKLPKHSNKPAIALNVGDRVNHEKYGLGTVTKVDKMAPADSVTIDFGSSGTVRLMLIGSVPMEKL | not soluble
MGSDKIHHHHHHMGGLKMKVIILGSGSYSGTPKPLCTCENCTRARINPAFRRTRFSVYIEGGILIDPGPDLHYHLEKLNKEVETILITHAHFDHIFGLPDAQVFKKLTIASNPLGIKVARSLAMLAFNSEAPLGNDWDYVELKFWNEYKVNGVKVIHFPVVHSIEMAGGFLIERKNKTVAITGDTGPEIIRDSEVIDLIKGSDLLISEMTHKESIPKTHLGVNDAIELAKIVKAEQTVFAHISHSNYPQEILEKKVREAKISGIVARDFTIIEI | not soluble
MSLEYLLQAAGIPRSTFFYHQKRLSKPDKHAELKDAIRASFERNKHRYGYRRVLLDLRNQGWVVNHKLVYKLMCEMGLRAKIRQRRPYVSYTGTISHIADNKLDRKFTPDQPNTVFVSDVTEFRVAGRKVYLSPVMDLFDRSIVAHTVATSPSTALTTDSLSKAIAACEPEPGWMIHTDQGFQYQHASWRDLIGDNGGVQSMSRKANCYDNAVMENFFGHLKTEMYHGEVFDTVAEFNQVIDEYIQWYNTERIQQRLKGLTPMQYRNQTLEALTAEGHHHHHH | not soluble
MGGSVAAQDEFYRSGWALNMKELKLLQTIGKGEFGDVMLGDYRGNKVAVKCIKNDATAQAFLAEASVMTQLRHSNLVQLLGVIVEEKGGLYIVTEYMAKGSLVDYLRSRGRSVLGGDCLLKFSLDVCEAMEYLEGNNFVHRDLAARNVLVSEDNVAKVSDFGLTKEASSTQDTGKLPVKWTAPEALREKKFSTKSDVWSFGILLWEIYSFGRVPYPRIPLKDVVPRVEKGYKMDAPDGCPPAVYEVMKNCWHLDAAMRPSFLQLREQLEHIKTHELHL | soluble
MCNTNMSVPTDGAVTTSQIPASEQETLVRPKPLLLKLLKSVGAQKDTYTMKEVLFYLGQYIMTKRLYDEKQQHIVYCSNDLLGDLFGVPSFSVKEHRKIYTMIYRNLVVVNQQESSDSS | soluble
EEYSKAELVVREYVASEGREFFISFEIPEYDALVGFVRLRFPKEPFIEVLRDAALIRELHVYGRAVPIGQSSDAFQHRGFGERLLKEAEEIAKEEYDRIAVISGVGVRDYYRKLGYRLRQGYMVKKL | not soluble
MARKHIYIAYTGGTIGMKKSDHGYVPVAGFMEKQLASMPEFHRPEMPLFTIHEYDPLMDSSDMTPADWQLIADDIAANYDKYDGFVILHGTDTMAYTASALSFMFENLGKPVIVTGSQIPLADLRSDGQANLLNALHVAANYPINEVTLFFNNRLMRGNRSRKSHADGFSAFSSPNLPPLLEAGINIELSTNVKVDEKPSGEFKVNPITPQPIGVITMYPGISHEVIRNTLLQPVNAMILLTFGVGNAPQNPELLAQLKAASERGVIVVNLTQCLAGKVNMGGYATGCALADAGVISGYDMTPEAALAKLHYLLSQNLSYEEVKAKMQQVLRGEMTL | soluble
MPRIEDRLINRTPRNFTIIGNSPNSMSRGKRPHTTPIEVHLLREGIIESQHWAEATVYDDRGRVLMLAGDSTSNAFIRSSLKPFQALAVTSTGTMERYGLTDKDLAIMCGSHQGTIEQARQVFNILWRADIEPQALQCPIPAGQESPLYHGCSGKHAGMLAVCQQQDWPLHSYLQQNSPIQKLILSKVADLLGMPGAELIAAHDDCGAPTYTMELGQIAHLYALLASGQQLGLERVARAMTYYPYFVAGEGCFDTELMQQMEGELVSKSGAEGVQCVGRVGEGLGLAIKVKDGSKRAKYAVAIHLLQQMGWIPPQVAETLSEKFVRLGKYKRLEVIGELAMLLEHHHHHH | not soluble
MSLIHAGSMIDGVAKKIKTKQTIVIEDGVIIDVKSGYTKAKPNDIVIDLKNTTVTPGWMDLHVHLGSQSSPQSYSEDFYLNPEDFAYRSVPWIEKTLLAGFTTVRDVGGEVVLAARNAVNNGYINGPRIFSAGRSIGTTGGHADPSSGLNRKFRGDPGPHDAVVNGVDDAMKAVRQRYKDGSDLIKITATGGVLSVAKNGQNPQFTEEEIRAIVETAKDYEMHVAAHAHGVEGMQRAIRAGVRTIEHGTLMDRPTARLMKKYGTYYVPTVSAGEFVYEKAKEPGYFPEIVRPKALEIGPKIKKTLGMAYEEGVKIAFGTDMGVSPHGENADEFVYMVEAGMKPIDAIFAATSIAAEVLNQEDLGKIKKGMKADIVAVNGNPLKDIAVTKNVVFVMKDGVVYKQPINLKEGHHHHHH | soluble
GTVQEIMIPAGKAGLVIGKGGETIKQLQERAGVKMILIQDGSQNTNVDKPLRIIGDPYKVQQACEMVMDILRERDQGGFGDRNEYGSRIGGGIDVPVPRHSVGVVIGRSGEMIKKIQNDAGVRIQFKQDDGTGPEKIAHIMGPPDRCEHAARIINDLLQSLRSG | soluble
MGSDKIHHHHHHMSLLINLSFILTKPTGTTTYAFNLLPHLKPLQPTLLTSQYFPNYNSYQTPVNQTSEQGIKGHLRRLRWTQFKLPKIYNNLKSSLLFSPLPEAPLYTNCRFVITSFDMIPLRFPKRFSPLIPYHRYYTPQVLKQAQHIICISQTTAEDITNFYGIPANKITPILLAYDRTHFRPLNLATRNYFLYIGRQEPYKNIQRLLAAFAALPNHKDYELWLVGPSDLRYTPTLKTQVEELSITNQVKFLDYVPYSELPKIINEAIALVFPSLWEGFGLPVLEAMACGTPVITSNLSSLPEVAGDAAILIDPYNTVEITEAMQVIATNSALRSHLSSQGIIHCQQFSWEKTAKATAEVLSRYM | not soluble
MSLDQVDKALTPKEKAETGVPFYASNQAGIITAQQTYCYIASFDIQTESRQILQDLFVKWTKFADLTTSGGVLRDVDNDMLPPNDTGEADGLGISNFTVTLGYGPTFFEKDGKDRFGVKAKKPKYLEKIPHMAHDSLDEAYSDGDLCIQVCADDQQVAFHGIRNFIRLASGVAVVRWIEEGFLSAPKNETPRNLFGFKDGTANVDHDSNKGYKDVVWAEKDEPEWMRNGSYLGYRKIQMLIEIWDRSSLLDQEDTFGRKKASGAPYHKKHEHDKVDPSKLPADSHVRLAKDTKQQMHRRAYSYTNGIDKSTGTIDAGLLFICFTQNPAKQFLPMLSIMGKMDKLNEYTVPIGSAMFACQGGLAPGEIFGEKLLEGHHHHHH | soluble
PLGLAPTASTTATLAMGDALAVALLIERGFRPEDFALFHPGGSLGKKLLLTVGDLMHSGDAVPLVGSATPIRDALFVITAKGLGITGVCAEDGALVGVVTDGDLRRSLGKGVDILNQPAGEIMTRNPKRINRSELAAKALQVMESHSITSLFVFDDTADNRPVGVIHLHDLLRA | not soluble
MSTYYQSAPVLVHAHAYQPPLSPPQSPPHGYLPFYTSNPMMCSTSPLYFSPQMVQPLPPQQHYHMYPSTSAGPGMYYTDFNPHYVQIQISQSVSHDKILAGGPKDNCTVARGRKTHVDHRQLSIEKLHPLLLQFKLTTSELETNAYPMRRDGSTKAVSIADTVYTQNKKMFLDDYDMSRNCSRCNKEFKLSPNGTMIRSTGICRYHNRGVAINGKRDTFRKRYSCCNEEFNVALGCKFSDVHVTDQLFKKELSTFVSTPVPVPNDQRSTRVYALDCEMVYTIAGPALARLTMVDMQRNRVLDVFVKPPTDVLDPNTEFSGLTMEQINSAPDTLKTCHQKLFKYVNADTILIGHSLESDLKAMRVVHKNVIDTAILFRSTRDTKVALKVLSAKLLHKNIQGDNEDAIGHDSMEDALTCVDLIFYGLRNPESIAIREANTNC | not soluble
MAGDPMNDVSKASLPKAIFLMGPTASGKTALAIELRKVLPVELISVDSALIYRGMDIGTAKPNADELKAAPHRLLDIRDPSQAYSAADFRRDALAQMAEITAAGRIPLLVGGTMLYFKALLEGLSPLPSADPEVRSRIEQQAAELGWEALHQQLQEIDPVAAARIHPNDPQRLSRALEVFFISGKTLTELTQTSGDALPYQVHQFAIAPASRELLHQRIELRFHQMLASGFEAEVRALFARGDLHTDLPSIRCVGYRQMWSYIEGEISYDEMVYRGVCATRQLAKRQMTWLRGWEGVRWLDSENPDRARKEVLQVVGAIADLEHHHHHH | soluble
MAAFEYKALDAKGKQKKGTIEGDNARQVRQRLKEQGMIPVEVVEAKAKAAKSSGSVGFKRGIKTAELALITRQLSTLVQSGMPLEECLRAVSEQAEKPRIRTMIAAVRSKVTEGYPLADSLGDYPHVFDELFRSMVAAGEKSGHLDTVLERLAEYVENRQKMRSKLLQA | not soluble
MAHHHHHHMTSTVTAVNQTQSLAAIRNFVRASVSCITYARGLCSDNAYEQRPFLGLPLRQLIPSTTESITISEWIEKGAFDALNRNYLKEMSLCVYDAACHELLESYCFGFNYTGDGERAQMTLNASQTIADGSKTTAVSQSSGGAVGIPAYRKRRCTKQEVQHLLTSILERLMDVVESLPPLLSERVLTMRLTYYDAVTPASYEPPCFAPASEHMARLYQAEVKHHVNIGSMDTSHHLFSVAIRHPLLQQIHRQMTGRTTSAVATKTGGSPLSAGKIAAVSTPSDPLRSGWESSFSSDPAVASAVAAAGATVTHGVVASHASCGLLLCADGEGAAFDAENAGEEKAAGSSLGEVGGGGACTARTGETLRPCEVAKLDGVYRLMEKSTSGDERRLLRPAELTYLLFAAFVFTKAPSARGGRGELKADEVEAYRALRCPFDVSAKTVLLVLQRLSREDFLQPCNARGAPAPKMPKAEEGSRPTPAIRAWLVPDPPASLLQQLMQVDAVTELLTHESHLVLQELSVYLAREEWRRAPRTMTAKATSGRISTTGGSGKRRSSR | soluble
